The record followed here is patent US20160362487A1 (Regeneron, published 2016).

Numbering of substitutions follows the chain as printed. Names and notes keep the numbering of the source.

B1: H4H9629P (antibody, human IgG4, V domains shown)
VH: EVQLVESGGGLVQPGGSLRLSCAASGFTFRSFAMSWVRQAPGKGLELVSDLRTSGGSTYYADSVKGRLTISRDNSKNTLYLQMNSLRAEDTAVYYCAKSHYSTSWFGGFDYWGQGTLVTVSS
VL: DIQMTQSPSSVSASVGDRVTITCRASQGFSSWLAWYQQKPGKAPKLLIYAASSLQSGVPSRFSGSGSGTDFTLTITNLQPEDFATYYCQQANSFPLTFGGGTKVEIK
notes: Human IgG4 Fc (H4H)
B2: H4H9633P (antibody, human IgG4, V domains shown)
VH: EVQLVESGGGLVQPGGSLRLSCAASGFTFSSYVMSWVRQAPGKGLEWVSSISGNGGSTNYADSVKGRFTISRDNSKNTLFLEMNSLRAEDTAVYYCAKSLGTTTTFLGFDYWGQGTLVTVSS
VL: B1 VL with F29I, D70Y, T76S, N77S
notes: Human IgG4 Fc (H4H)
B3: H1M9568N (antibody, mouse IgG1, V domains shown)
VH: QVLLVQSGAEVKKPGATVKVSCKASGSTFTGYYMHWVRQAPGQGLEWMGWINPNNGGTNYAQKFQGRVTMTRDTSISTAYMELSRLRSDDTAVYYCARELRYNWKSWGQGTLVTVSS
VL: EIVLTQSPGTLSLSPGERVTLSCRASQSVGRPYLAWYQQIPGQAPRLLIYGASSRATDIPDRFSGNGSGTDFTLTISRLEPEDFAVYYCQQYDNSPYTFGQGTRLEIK
notes: Human variable domains, mouse IgG1 Fc (H1M)
B4: H1M9565N (antibody, mouse IgG1, V domains shown)
VH: QVTLKESGPVLVKPTESLTLTCSVSGFSLSNVRMGVSWIRQSPGKALEWLAHIFSNDEKSYTTSLKTRLTISKDTSRSQVVLTMTDMDPGDTATYYCARIRNLAFNYWGQGTLVTVSS
VL: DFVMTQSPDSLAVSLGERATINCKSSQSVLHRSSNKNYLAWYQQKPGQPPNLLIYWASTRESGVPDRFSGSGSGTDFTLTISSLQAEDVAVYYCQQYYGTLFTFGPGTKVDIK
notes: as for B3
B5: H4H9640P (antibody, human IgG4, V domains shown)
VH: QVQLQESGPGLVKPSETLSLTCTVSGGSISSYYWSWIRQPPGKGLELIGYIYYSGSTNYNPSLKSRVTISVDTSKNHFSLKLSSVTAADTAVYYCARSQYTSSWYGSFDIWGQGTMVTVSS
VL: DIQMTQSPSSVSASVGDRVTITCRASQGISTWLAWFQQKPGKAPKLLIYAASTLQGGVPSRFSGSGSGPEFTLTISSLQPEDFATYYCQQANSFPWTFGQGTKVEIK
notes: Human IgG4 Fc (H4H)
B6: H1M9566N (antibody, mouse IgG1, V domains shown)
VH: EVQLLESGGDLVQPGGSLRLSCAASGFTFSSYAMSWVRQAPGKGLEWVSVISGSGSSTDYADSVKGRFTISRDNSRDTLHLQMNSLRAEDTAVYYCAKTFYYFYGLDVWGQGTTVTVSS
VL: DIQMTQSPSSLSASLRDRVTITCRASQGISNYLAWYQQKPGKVPKVLIYAASTLQSGVPSRFSGSGSGTVFTLTISSLQTEDVATYYCQKYSSAPFTFGPGTKVDIK
notes: as for B3

The target in one assay is T1, pre-formed complex of hIL-33 and captured hST2-MMH (human, UniProt O95760 112-270).
T1 construct: Ligand-receptor complex on the sensor: hST2-MMH captured by anti-myc mAb and saturated with 100 nM hIL-33; also called hIL-33 pre-complexed with hST2-MMH
Description: SPR 25C, 100 nM mAb over hIL-33/hST2-MMH complex. As to the method:
The ability of anti-IL-33 antibodies to bind to a pre-formed complex of IL-33 with ST2 was tested using Biacore T-200 instrument equipped with a real-time surface plasmon resonance biosensor. The experiment was performed at 25° C. with a running buffer composed of 0.01M HEPES pH 7.4, 0.15M NaCl, 3 mM EDTA, and 0.05% v/v Surfactant Tween-20 (HBS-ET). […] The captured hST2-MMH surface was then saturated by injecting 100 nM of human IL-33 (hIL-33; R&D Systems, #3625-IL-010/CF) for 3 minutes followed by a 3 minute injection of a 100 nM solution of the anti-IL-33 monoclonal antibody. The real-time binding response was monitored during the entire course of the experiment, and the observed binding response at 3 minutes after injection of anti-IL-33 antibody to the pre-formed complex of hIL-33 and captured hST2-MMH was recorded and tabulated and shown in Table 7. No non-specific binding of anti-IL-33 monoclonal antibody to the anti-myc tag capture surface was observed.
B1: the “Antibody Binding Response (RU)” value is -1 RU.

Regarding B2, the “Antibody Binding Response (RU)” value is -1 RU.

Take B3: the “Antibody Binding Response (RU)” value is 131 RU.

For B4, the “Antibody Binding Response (RU)” value worked out at 11 RU.

Turning to B5, the “Antibody Binding Response (RU)” value was -1 RU.

Regarding B6, the “Antibody Binding Response (RU)” value is 13 RU.

For the next assay, the target named is T2, human IL-33 (R&D Systems, #3625-IL-010/CF) (human, UniProt O95760 112-270).
T2 construct: Commercial recombinant protein; also called hIL-33; interleukin-33
T2 sequence (looked up): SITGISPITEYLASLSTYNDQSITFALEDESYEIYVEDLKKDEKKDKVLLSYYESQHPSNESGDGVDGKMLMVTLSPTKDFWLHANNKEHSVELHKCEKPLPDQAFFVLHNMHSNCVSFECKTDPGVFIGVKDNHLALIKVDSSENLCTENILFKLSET
Description: BLI; hIL-33 pre-mixed with mAb-2 Isotype control 2. As to the method:
Binding competition between a panel of different anti-IL-33 monoclonal antibodies was determined using a real time, label-free bio-layer interferometry assay on an Octet® HTX biosensor (ForteBio, A Division of Pall Life Sciences). The experiment was performed at 25° C. using a buffer of 0.01M HEPES pH7.4, 0.15M NaCl, 0.05% v/v Surfactant Tween-20, and 0.1 mg/ml BSA (HBS-ET kinetics buffer) with the plate shaking at a speed of 1000 rpm. To assess whether two antibodies were able to compete with one another for binding to human IL-33, a pre-mix assay format was used where 100 nM of human IL-33 (R&D Systems; #3625-IL-010/CF) was pre-mixed with 500 nM of different anti-IL-33 monoclonal antibodies (subsequently referred to as mAb-2) for at least 2 hours prior to running the binding competition assay. […] Following the capture step, unoccupied anti-mouse Fc polyclonal antibody and anti-human Fc polyclonal antibody on the Octet biosensors were saturated by submerging them for 4 minutes into wells containing 200 μg/mL of a non-specific monoclonal antibody with a mouse Fc or with a human Fc, respectively. Finally, the Octet biosensors were immersed for 4 minutes into wells containing the pre-mixed samples of 100 nM of human IL-33 and 500 nM of mAb-2. At the end of each cycle, the non-covalently captured anti-IL-33 antibodies along with the bound pre-complex of human IL-33 and mAb-2 were removed from the biosensors using three alternate 20 second immersions into 10 mM HCl followed by submerging into HBS-ET kinetics buffer. The biosensors were washed in HBS-ET kinetics buffer in between every step of the experiment. The real-time binding response was monitored during the binding events, and the binding response (in units of nm) at the end of every step was recorded.
For the molecule B1, the “mAb-1 Binding to the Pre-complex of mAb-2 & hIL-33” value (shortened to “mAb-1 Binding to the Pre-complex”) was 0.14 nm.

In the case of B2, the “mAb-1 Binding to the Pre-complex” value turned out to be 0.15 nm.

In the case of B3, the “mAb-1 Binding to the Pre-complex” value came out at 0.1 nm.

With B4, the “mAb-1 Binding to the Pre-complex” value worked out at 0.03 nm.

B5: the “mAb-1 Binding to the Pre-complex” value is 0.1 nm.

Take B6: the “mAb-1 Binding to the Pre-complex” value is 0.1 nm.

The next assay addresses T2, human IL-33 (R&D Systems, …). Description: SPR 25C pH7.4, mAb captured. As to the method: (§1) Equilibrium dissociation constants (KD values) for IL-33 binding to purified anti-IL-33 monoclonal antibodies were determined using a real-time surface plasmon resonance biosensor using a Biacore 4000 instrument. The Biacore sensor surface was first derivatized by amine coupling with either a polyclonal rabbit anti-mouse antibody (GE, # BR-1008-38) or with a monoclonal mouse anti-human Fc antibody (GE, # BR-1008-39) to capture anti-IL-33 monoclonal antibodies expressed with mouse or with human IgG4 constant regions, respectively. All Biacore binding studies were performed in 0.01M ADA pH 7.4, 0.15M NaCl, 3 mM EDTA, and 0.05% v/v Surfactant Tween-20 (ABS-ET running buffer). […] Association of either hIL-33 or MfIL-33-6His to the captured monoclonal antibody was monitored for 4 minutes and their dissociation in ABS-ET running buffer was monitored for 10 minutes. The effect of reduced pH on the binding of each anti-IL-33 antibody to either hIL-33 or MfIL-33-6His was studied using an in-line pH chase assay format in 0.01M ADA pH 6.0, 0.15M NaCl, 3 mM EDTA, and 0.05% v/v Surfactant Tween-20 (ABS-ET pH6 buffer). To achieve this, association of either hIL-33 or MfIL-33-6His to the captured monoclonal antibody was monitored for 4 minutes in ABS-ET running buffer. Following a 30 second dissociation of either hIL-33 or MfIL-33-6His in ABS-ET running buffer, ABS-ET pH6 buffer was injected for 3 minutes, and the analyte dissociation under the low-pH conditions was measured. All the binding kinetic experiments were performed at both 25° C. and 37° C. Kinetic association (kₐ) and dissociation (kd) constants were determined by fitting the real-time sensorgrams to a 1:1 binding model using Scrubber 2.0c curve fitting software. Binding dissociation equilibrium constants (KD) and dissociative half-lives (t½) were calculated from the kinetic rate constants as: […]
Regarding B1, binding was put at a Kd of 0.29 nM, the koff is 0.000226 s⁻¹, the kon turned out to be 777000 M⁻¹ s⁻¹ and the t½ was determined as 51 min.

Molecule B2 registered a Kd of 0.432 nM, a koff of 0.000283 s⁻¹, a kon of 656000 M⁻¹ s⁻¹ and a t½ of 41 min.

Consider B3, for which the Kd worked out at 0.184 nM, the koff came out at 0.00013 s⁻¹, the kon was 702000 M⁻¹ s⁻¹ and the t½ is 89 min.

Consider B5, for which binding was characterised by a dissociation constant (Kd) of 0.26 nM, the koff amounted to 0.000237 s⁻¹, the kon is 912000 M⁻¹ s⁻¹ and the t½ is 49 min.

Regarding B6, the kon is 127000 M⁻¹ s⁻¹.

For another assay, the target named is T3, cynomolgus monkey IL-33 expressed with a C-terminal hexahistidine tag (cynomolgus monkey).
T3 construct: also called MfIL-33-6His; Mf-IL-33-6His
T3 chain: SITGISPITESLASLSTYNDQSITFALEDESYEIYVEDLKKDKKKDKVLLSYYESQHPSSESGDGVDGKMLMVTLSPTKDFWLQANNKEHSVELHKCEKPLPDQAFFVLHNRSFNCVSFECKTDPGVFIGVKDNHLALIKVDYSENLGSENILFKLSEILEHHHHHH
Put plainly: SPR 37C pH7.4, mAb captured. As to the method: as §1
As for B1, the Kd amounted to 32.4 nM, the koff was determined as 0.0347 s⁻¹, the kon is 1.07e+06 M⁻¹ s⁻¹ and the t½ was found to be 0.3 min.

On to B2, for which the affinity, expressed as Kd, was 48.6 nM; the koff stood at 0.0227 s⁻¹; the association rate constant (kon) was found to be 468000 M⁻¹ s⁻¹; the t½ amounted to 0.5 min.

On to B3, for which the Kd was 4.46 nM, the koff came out at 0.00173 s⁻¹, the on-rate constant (kon) was determined as 389000 M⁻¹ s⁻¹ and the t½ was found to be 7 min.

On to B4, for which binding was put at a Kd of 2.59 nM, the koff was found to be 0.000202 s⁻¹, the kon was 78200 M⁻¹ s⁻¹ and the t½ is 57 min.

Molecule B5 had a Kd of 5.38 nM, a koff of 0.00436 s⁻¹, a kon of 810000 M⁻¹ s⁻¹ and a t½ of 2.6 min.

Turning to B6, the Kd was 1 nM, the koff worked out at 0.0004 s⁻¹, the kon was 399000 M⁻¹ s⁻¹ and the t½ stood at 29 min.

A further assay deals with T2, human IL-33 (R&D Systems, …). Description: SPR 37C pH7.4, mAb captured. As to the method:
as §1
B1 registered a Kd of 0.508 nM, a koff of 0.000646 s⁻¹, a kon of 1.27e+06 M⁻¹ s⁻¹ and a t½ of 18 min.

In turn, B2 yielded a Kd of 0.931 nM, a koff of 0.000689 s⁻¹, a kon of 740000 M⁻¹ s⁻¹ and a t½ of 17 min.

Consider B3, for which the Kd stood at 1.43 nM, the koff amounted to 0.000961 s⁻¹, the kon was 672000 M⁻¹ s⁻¹ and the t½ was determined as 12 min.

In turn, B5 came in with a Kd of 0.498 nM, a koff of 0.000573 s⁻¹, an association rate constant (kon) of 1.15e+06 M⁻¹ s⁻¹ and a t½ of 20 min.

B6: binding was put at a Kd of 1.7 nM, the koff was 0.000283 s⁻¹, the kon is 166000 M⁻¹ s⁻¹ and the t½ came to 41 min.
